In article PMC6379675, “Structural insights into chromosome attachment to the nuclear envelope by an inner nuclear membrane protein Bqt4 in fission yeast” (Nucleic Acids Research, 2018):
Substitutions are numbered along the chain they refer to. In names and notes the source's numbering stands. Like-named read-outs stand apart in the source and are kept apart here. One block for each binder: values may come before it. Ends that are not written are not given here.

Legend:
[1] = biological target: T1, Bqt4NTD^R48E (S. pombe, UniProt O60158 2-140, R48E); assay: ITC
T1 sequence: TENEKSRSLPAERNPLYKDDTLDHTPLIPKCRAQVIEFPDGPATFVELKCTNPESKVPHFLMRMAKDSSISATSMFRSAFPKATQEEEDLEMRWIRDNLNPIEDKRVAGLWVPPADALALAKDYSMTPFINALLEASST

[2] = biological target: T2, Bqt4_(2–140), N-terminal domain of Bqt4 (S. pombe, UniProt O60158 2-140); assay: ITC; ITC200; peptide (Rap1 479-527 at 1000–1500 μM) titrated into Bqt4 2-140 (100–150 μM), 20°C, 20 mM Tris–HCl pH 8.0, 150 mM NaCl; one binding site model; two independent experiments; details: both partners purified
T2 construct: Bqt4, S. pombe inner nuclear membrane protein, residues 2-140; also called Bqt4NTD; Bqt4NTD^WT; source: E. coli BL21(DE3), purified (Ni-NTA, on-beads Ulp1 digestion, Superdex200); not shown: His6, N-terminal, cleaved; SUMO, N-terminal, cleaved
T2 sequence (looked up): T1 sequence with E47R

[3] = biological target: T3, Bqt4_(2–180) (S. pombe, UniProt O60158 2-180); assay: as above; details: both partners purified
T3 construct: Bqt4, S. pombe, residues 2-180; also called N-terminal region of Bqt4; source: E. coli BL21(DE3), purified (Ni-NTA, on-beads Ulp1 digestion, Superdex200); not shown: His6, N-terminal, cleaved; SUMO, N-terminal, cleaved
T3 sequence (looked up): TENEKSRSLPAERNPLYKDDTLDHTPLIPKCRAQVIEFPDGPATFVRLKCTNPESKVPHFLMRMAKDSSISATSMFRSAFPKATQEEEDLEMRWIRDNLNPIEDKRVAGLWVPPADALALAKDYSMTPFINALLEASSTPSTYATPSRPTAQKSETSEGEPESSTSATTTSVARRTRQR

[4] = biological target: T4, Bqt4_(2–140), N-terminal domain of Bqt4 (S. pombe, UniProt O60158 2-140); assay: ITC
T4 chain: T1 sequence with E47R

[5] = biological target: T5, Bqt4_(2–180) (S. pombe, UniProt O60158 2-180); assay: ITC
T5 chain: T3 sequence (looked up)

[6] = biological target: T4, Bqt4_(2–140), N-terminal domain of Bqt4; assay: ITC
[7] = biological target: T6, SUMO_(21–92)-Bqt4_(8–140) fusion protein (S. pombe, UniProt O60158 8-140); assay: crystal structure; Bqt4 construct and peptide mixed at a molar ratio of 1:1.5; molecular replacement; details: both partners purified
T6 construct: Bqt4, S. pombe, residues 8-140; crystallisation fusion; also called SUMO-Bqt4NTD; Sumo-fused Bqt4_(8–140); not shown: SUMO (residues 21-92), N-terminal, kept
T6 sequence (looked up): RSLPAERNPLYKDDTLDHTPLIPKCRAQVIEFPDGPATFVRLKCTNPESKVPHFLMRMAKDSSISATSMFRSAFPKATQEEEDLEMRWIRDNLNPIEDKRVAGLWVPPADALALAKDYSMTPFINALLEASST

[8] = biological target: T7, Bqt4NTD^F61A (S. pombe, UniProt O60158 2-140, F61A); assay: ITC
T7 sequence: T1 sequence with E47R, F60A

[9] = biological target: T2, Bqt4_(2–140), N-terminal domain of Bqt4; assay: fluorescence polarisation; competition: FITC-labeled Lem2BBM pre-mixed with Bqt4NTD (4°C, 1 h), unlabeled peptides from 10 nM to 200 μM added; 25 mM Tris–HCl pH 8.0, 150 mM NaCl, 10% glycerol; 25°C; details: both partners purified
[10] = biological target: T2, Bqt4_(2–140), N-terminal domain of Bqt4; assay: fluorescence polarisation; 100 nM FITC-labeled Lem2BBM with Bqt4NTD from 20 nM to 50 μM; 25 mM Tris–HCl pH 8.0, 150 mM NaCl, 10% glycerol; 25°C; details: both partners purified
[11] = biological target: T2, Bqt4_(2–140), N-terminal domain of Bqt4; assay: pull-down; 30 μg GST-tagged Rap1 and 20 μg purified Bqt4 on glutathione-Sepharose 4B beads, 25 mM Tris pH 8.0, 100 mM NaCl, 10% glycerol, 4°C, 40 min; SDS-PAGE; details: both partners purified
[12] = biological target: T3, Bqt4_(2–180); assay: as above; details: both partners purified
[13] = biological target: T8, Bqt4NTD R33A (S. pombe, UniProt O60158 2-140, R33A); assay: ITC
T8 sequence: T1 sequence with R32A, E47R

[14] = biological target: T9, Bqt4NTD D90R (S. pombe, UniProt O60158 2-140, D90 into arginine); assay: ITC
T9 sequence: T1 sequence with E47R, D89R

[15] = biological target: T4, Bqt4_(2–140), N-terminal domain of Bqt4; assay: ITC
[16] = biological target: T7, Bqt4NTD^F61A; assay: ITC; remark: listed apart in the source
[17] = biological target: T4, Bqt4_(2–140), N-terminal domain of Bqt4; assay: ITC
[18] = biological target: T10, Bqt4NTD R33A (S. pombe, UniProt O60158 2-140, R33A); assay: ITC; ITC200; peptide (Rap1 479-527 at 1000–1500 μM) titrated into Bqt4 2-140 (100–150 μM), 20°C, 20 mM Tris–HCl pH 8.0, 150 mM NaCl; one binding site model; two independent experiments; details: both partners purified
T10 construct: Bqt4, S. pombe, residues 2-140; also called Bqt4 (R33A); source: E. coli BL21(DE3), purified (Ni-NTA, on-beads Ulp1 digestion, Superdex200); not shown: His6, N-terminal, cleaved; SUMO, N-terminal, cleaved
T10 sequence (looked up): T1 sequence with R32A, E47R

[19] = biological target: T11, Bqt4NTD R33A, O60158; assay: ITC; details: chain shown with the change;; parent: 11.4 ± 1.2
T11 chain: T1 sequence with R32A, E47R

[20] = biological target: T4, Bqt4_(2–140), N-terminal domain of Bqt4; assay: FP; competition with FITC-Lem2BBM
[21] = biological target: T12, Bqt4NTD D90R (S. pombe, UniProt O60158 2-140, D90 into arginine); assay: ITC; ITC200; peptide (Rap1 479-527 at 1000–1500 μM) titrated into Bqt4 2-140 (100–150 μM), 20°C, 20 mM Tris–HCl pH 8.0, 150 mM NaCl; one binding site model; two independent experiments; details: both partners purified
T12 construct: Bqt4, S. pombe, residues 2-140; also called Bqt4^D90 substituted into arginine; source: E. coli BL21(DE3), purified (Ni-NTA, on-beads Ulp1 digestion, Superdex200); not shown: His6, N-terminal, cleaved; SUMO, N-terminal, cleaved
T12 sequence (looked up): T1 sequence with E47R, D89R

[22] = biological target: T13, Bqt4NTD D90R, O60158; assay: ITC; details: chain shown with the change;; parent: 11.4 ± 1.2
T13 chain: T1 sequence with E47R, D89R

Binder: SESSSPYSEVDSAEEDDELFQNYVLQQTRK [Lem2_(250-279)]
Kd [6]: 0.34 µM

B4: Lem2_(261–279) (peptide, UniProt Q10109 261-279, looked up)
chain: SAEEDDELFQNYVLQQTRK
notes: 3C cleavage leaves extra N-terminal residues; also called Lem2BBM; source: E. coli BL21(DE3), purified (glutathione-Sepharose 4B, on-beads 3C digestion, Superdex75); not shown: GST, N-terminal, cleaved
Kd [1]: 3.2 µM
Kd [8]: 46 µM
Kd [2]: ~0.53 µM
IC50 [9]: 1.2 µM

B5: FITC-labeled Lem2BBM (peptide, UniProt Q10109 261-279, looked up)
chain: SAEEDDELFQNYVLQQTRK
modifications: also: FITC label, position not given here
notes: also called fluorescent FITC-labeled Lem2BBM; source: E. coli BL21(DE3), purified; labeled with EZLabel Protein FITC Labeling Kit; not shown: GST, N-terminal, cleaved
Kd [10]: 0.61 µM

B7: Rap1_(479–527) (domain or fragment, S. pombe, UniProt Q96TL7 479-527, looked up)
chain: EIPLLSDYSDSENISEKSSDDEEAFEKQVTSSYSSPIKVKSQGKSSKGS
notes: also called Rap1^WT; wild-type Rap1; source: E. coli BL21(DE3), purified (glutathione-Sepharose 4B, on-beads 3C digestion, Superdex75); not shown: GST, N-terminal, cleaved
Kd [13]: 12.3 µM
Kd [14]: 14.4 µM
Kd [15]: 11.4 µM
Kd [16]: 909 µM
fold by which the Bqt4-Lem2 interaction is stronger than this pair [2]: 20 fold
IC50 [9]: 50.9 µM

B9: Rap1_(479–527) S512E/S513E (domain or fragment, S. pombe, UniProt Q96TL7 479-527, looked up)
chain: B7 chain with S34E, S35E
notes: phosphomimetic; also called Rap1^S512E/S513E; source: E. coli BL21(DE3), purified (glutathione-Sepharose 4B, on-beads 3C digestion, Superdex75); not shown: GST, N-terminal, cleaved
Kd [17]: 115 µM
IC50 [20]: > 200 µM
fold decrease in binding affinity against wild-type Rap1 [2]: 10 fold

B10: Rap1_(479–527) (S496E/S497E) (domain or fragment, S. pombe, UniProt Q96TL7 479-527, looked up)
chain: B7 chain with S18E, S19E
notes: phosphomimetic; also called Rap1^S496E/S497E; source: E. coli BL21(DE3), purified (glutathione-Sepharose 4B, on-beads 3C digestion, Superdex75); not shown: GST, N-terminal, cleaved
Kd [17]: 0.9 µM
IC50 [20]: 6.8 µM
fold increase in binding affinity against wild-type Rap1 [2]: 10 fold

Second part, the binder after the results:

Kd [1]: 262 µM
Kd [2]: 3.7 µM
B1: Sad1 (residues 88–101) (peptide, UniProt Q09825 88-101, looked up)
chain: SDNEEFENVVKNGH
notes: Sad1, S. pombe spindle pole body-associated protein, residues 88-101 (14 residues); 3C cleavage leaves extra N-terminal residues; also called Sad1BBM; Sad1_(88–101); source: E. coli BL21(DE3), purified (glutathione-Sepharose 4B, on-beads 3C digestion, Superdex75); not shown: GST, N-terminal, cleaved

binding result [2]: binds
binding result [3]: binds
Kd [4]: 11.4 µM
Kd [5]: 11 µM
B2: Rap1_(490–513), Bqt4-binding motif of Rap1 (peptide, UniProt Q96TL7 490-513, looked up)
chain: ENISEKSSDDEEAFEKQVTSSYSS
notes: 3C cleavage leaves extra N-terminal residues; also called Rap1BBM; source: E. coli BL21(DE3), purified (glutathione-Sepharose 4B, on-beads 3C digestion, Superdex75); not shown: GST, N-terminal, cleaved

binding result [7]: binds
B3: Rap1_(498–512) (peptide)
peptide: GPLDDEEAFEKQVTSSYS
notes: three extra residues left at the N-terminus after removal of GST by 3C protease; also called Rap1BBM (in the crystal); source: E. coli BL21(DE3), purified (glutathione-Sepharose 4B, on-beads 3C digestion, Superdex75); not shown: GST, N-terminal, cleaved

binding result [11]: binds
binding result [12]: binds
B6: GST-tagged Rap1_(490–513) (peptide, UniProt Q96TL7 490-513, looked up)
chain: ENISEKSSDDEEAFEKQVTSSYSS
notes: also called GST-Rap1BBM; source: E. coli BL21(DE3); not shown: GST, N-terminal, kept

Kd [17]: 2.6 µM
binding result [2]: binds
binding result [18]: binds
Kd [19]: 24.1 µM
B8: Rap1_(479–527) S497E (domain or fragment, S. pombe, UniProt Q96TL7 479-527, looked up)
chain: B7 chain with S19E
notes: phosphomimetic; also called Rap1^S497E; source: E. coli BL21(DE3), purified (glutathione-Sepharose 4B, on-beads 3C digestion, Superdex75); not shown: GST, N-terminal, cleaved

Kd [17]: 57.8 µM
fold decrease in binding affinity against wild-type Rap1 [2]: 5 fold
binding result [21]: binds
Kd [22]: 21.2 µM
B11: Rap1_(479–527) S513E (domain or fragment, S. pombe, UniProt Q96TL7 479-527, looked up)
chain: B7 chain with S35E
notes: phosphomimetic; also called Rap1^S513E; source: E. coli BL21(DE3), purified (glutathione-Sepharose 4B, on-beads 3C digestion, Superdex75); not shown: GST, N-terminal, cleaved
